{
  "source": "paper PMC9810211",
  "molecular_target": "SeTau-405 fluorescently labeled BOA (Burkholderia oklahomensis)",
  "assay": "other fluorescence titration",
  "data": [
    {"substance": "SARS-CoV-2 Spike protein (Hexapro S) (from UniProt P0DTC2) (natural protein)", "values": [
      {"measurement": "half-saturation point", "result": "30 to 60", "unit": "nM"}
    ]}
  ]
}
